Assay results taken from publication PMC2722910.

System: CC(C)C[C@H](NC(=O)[C@H](CO)NC(=O)[C@H](C)NC(=O)[C@H](CCCNC(=N)N)NC(=O)[C@H](CCCNC(=N)N)NC(=O)[C@@H](N)CC(C)C)C(=O)NCC(=O)O
Assay: purified protein
Details: Mg2+, ATP

**Q.** “cAMP-dependent kinase (PKA) catalytic subunit (Homo sapiens)” was tested. Which kcat did it give?
**A.** 8.5 ± 0.5 s⁻¹
